Measured values: paper PMC8049995 (The Journal of Biological Chemistry, 2021)

B1: Human peroxiredoxin 2 C172W mutant, reduced (enzyme, UniProt P32119 2-198, looked up)
chain: ASGNARIGKPAPDFKATAVVDGAFKEVKLSDYKGKYVVLFFYPLDFTFVCPTEIIAFSNRAEDFRKLGCEVLGVSVDSQFTHLAWINTPRKEGGLGPLNIPLLADVTRRLSEDYGVLKTDEGIAYRGLFIIDGKGVLRQITVNDLPVGRSVDEALRLVQAFQYTDEHGEVWPAGWKPGSDTIKPNVDDSKEYFSKHN
B2: Human peroxiredoxin 2, recombinant wild type, hyperoxidized (CP sulfinate) form (enzyme, UniProt P32119 2-198, looked up)
chain: ASGNARIGKPAPDFKATAVVDGAFKEVKLSDYKGKYVVLFFYPLDFTFVCPTEIIAFSNRAEDFRKLGCEVLGVSVDSQFTHLAWINTPRKEGGLGPLNIPLLADVTRRLSEDYGVLKTDEGIAYRGLFIIDGKGVLRQITVNDLPVGRSVDEALRLVQAFQYTDEHGEVCPAGWKPGSDTIKPNVDDSKEYFSKHN
modifications: Cys51 (CP) sulfinate
B3: Human peroxiredoxin 2 C172D mutant, reduced (enzyme, UniProt P32119 2-198, looked up)
chain: ASGNARIGKPAPDFKATAVVDGAFKEVKLSDYKGKYVVLFFYPLDFTFVCPTEIIAFSNRAEDFRKLGCEVLGVSVDSQFTHLAWINTPRKEGGLGPLNIPLLADVTRRLSEDYGVLKTDEGIAYRGLFIIDGKGVLRQITVNDLPVGRSVDEALRLVQAFQYTDEHGEVDPAGWKPGSDTIKPNVDDSKEYFSKHN
B4: Human peroxiredoxin 2 C172S mutant, reduced (enzyme, UniProt P32119 2-198, looked up)
chain: ASGNARIGKPAPDFKATAVVDGAFKEVKLSDYKGKYVVLFFYPLDFTFVCPTEIIAFSNRAEDFRKLGCEVLGVSVDSQFTHLAWINTPRKEGGLGPLNIPLLADVTRRLSEDYGVLKTDEGIAYRGLFIIDGKGVLRQITVNDLPVGRSVDEALRLVQAFQYTDEHGEVSPAGWKPGSDTIKPNVDDSKEYFSKHN

How the values were obtained:
[1] = biological target: the molecule itself; assay: SEC-MALS
[2] = biological target: the molecule itself; assay: SEC
[3] = biological target: the molecule itself; assay: crystal structure
[4] = biological target: the molecule itself; assay: AUC

Protein	stoichiometry N [1]	percent decamer [2] [%]	stoichiometry N [3]	stoichiometry N [4]
B1	10	62		
B2			10	
B3		45		10
B4		60		10
